Assay [1] deals with bovine liver calreticulin (bovine) (UniProt P52193). Nature of the assay: SPR; bovine CRT or human recombinant S100A10 amine-coupled to CM5 chips (1000 to 1300 RU), BIACORE 3000; Glu-plasminogen (0-1 uM) or 0.5 uM bovine serum albumin flowed at 50 ul/min; 25 °C; HBS-ET (10 mM Hepes pH 7.4, 150 mM NaCl, 3 mM EDTA, 0.05% Tween-20); apparent KD from steady-state affinity model. (SPR reads the build-up and loss of mass on a sensor chip optically.)

The target of assay [2] is human recombinant S100A10 (human) (UniProt P60903). The description is as above.
UniProt P60903, sequence (P60903 whole entry, the tested form may be a part): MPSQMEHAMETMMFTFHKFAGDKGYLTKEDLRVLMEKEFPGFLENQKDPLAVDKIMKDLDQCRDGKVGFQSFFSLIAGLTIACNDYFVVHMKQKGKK
For assay [3], the target named is recombinant human calreticulin (amino acids 18 to 417, N-terminal His-tag) (human) (UniProt P27797).
UniProt P27797, sequence (P27797 18-417): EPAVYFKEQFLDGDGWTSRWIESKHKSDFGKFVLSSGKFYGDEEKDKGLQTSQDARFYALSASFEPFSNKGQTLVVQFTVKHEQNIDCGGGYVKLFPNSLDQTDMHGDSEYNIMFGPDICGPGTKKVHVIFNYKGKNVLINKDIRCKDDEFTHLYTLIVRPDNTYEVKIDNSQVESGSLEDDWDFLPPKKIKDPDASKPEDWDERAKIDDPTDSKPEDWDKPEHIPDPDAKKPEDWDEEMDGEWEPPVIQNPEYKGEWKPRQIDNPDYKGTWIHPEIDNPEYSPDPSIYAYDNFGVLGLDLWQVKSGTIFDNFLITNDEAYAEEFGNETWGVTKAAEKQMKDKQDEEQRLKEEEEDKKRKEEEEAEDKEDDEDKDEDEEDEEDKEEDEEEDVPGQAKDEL

UniProt P52193, sequence (P52193 18-417): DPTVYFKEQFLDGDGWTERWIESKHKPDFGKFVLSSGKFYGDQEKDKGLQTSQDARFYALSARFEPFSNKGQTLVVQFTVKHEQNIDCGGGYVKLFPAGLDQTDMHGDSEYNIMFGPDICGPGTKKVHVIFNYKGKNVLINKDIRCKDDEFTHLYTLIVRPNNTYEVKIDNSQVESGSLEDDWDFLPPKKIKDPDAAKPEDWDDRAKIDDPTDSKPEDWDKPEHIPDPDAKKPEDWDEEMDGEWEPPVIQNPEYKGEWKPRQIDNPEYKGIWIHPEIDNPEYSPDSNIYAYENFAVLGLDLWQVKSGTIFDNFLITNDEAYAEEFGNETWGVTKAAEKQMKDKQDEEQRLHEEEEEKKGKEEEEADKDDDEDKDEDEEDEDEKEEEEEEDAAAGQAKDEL

On to human Glu-plasminogen (natural protein), for which the Kd turned out to be 1900 nM in assay [1] and 500 nM in assay [2]. Also, in assay [3], the inhibition by 10 mM ε-ACA of the stimulation of tPA-dependent plasminogen activation by 0.5 μM recombinant human CRT was determined as 80%.
